# Laboratory results from the nanobody polyreactivity screen of Harvey et al. (2022).
# Assay: yeast display, Sf9 membrane polyspecificity reagent, FACS + sequencing; frameworks hold sequencing errors
# Method in brief: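 Galactose induction of a Saccharomyces cerevisiae BJ5465 synthetic nanobody display library ran 36–48 hours. The cells were then stained for 1 hour at 4 °C with 10% biotinylated, detergent-solubilized Sf9 membrane reagent, pulled down on streptavidin microbeads and FACS-sorted into low and high (top ~1%) gates on expression and reagent-binding fluorescence. Labels for polyreactivity follow the gate of origin.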
row,Sequence,polyreactivity (PSR sort gate)
1,QVQLVESGGGLVQAGGSLRLSCAASGRIFRDYAMGWYRQAPGKERELVAAITGSGGRTYYADSVKGRFTISRDTAKNTVYLQMNSLKPEDTAVYYCAAYLGRRGQEMDYWGQGTQVTVSS,high polyreactivity
2,QVQLVESGGGLVQAGGSLRLSCAASGRIFRENAMGWYRQAPGKERELVAAISSGGSTYYADSVKGRFTISRDNAKNTVYLQMNSLKPEDTAVYYCAADLSWSRVVFGDYDYWGQGTQVTVSS,low polyreactivity
3,QVQLVESGGGLVQAGGSLRLSCAASGRIFRENAMGWYRQAPGKERELVASNSLSGTSTYYADSVKGRFTISRDNAKNTVYLQMNSLKPEDTAVYYCNGERLSTDPYDRNYWGQGTQVTVSS,low polyreactivity
4,QVQLVESGGGLVQAGGSLRLSCAASGRIFRFNAMGWYRQAPGKERELVAAITGSGGTTFYADSVKGRFTISRDNAKNTVYLQMNSLKPEDTAVYYCITLGNWRPVYNQPRYEYWGQGTQVTVSS,high polyreactivity
5,QVQLVESGGGLVQAGGSLRLSCAASGRIFRFYDMGWYRQAPVKESELVASISSTGGRTYYADSVKGRFTISRDNAKNTVYVQMNSLKPEDTAVYYCNATRGQYVGRYYYWGQGTQVTVSW,high polyreactivity
6,QVQLVESGGGLVQAGGSLRLSCAASGRIFRGNAMGWYRQAPGKEREMVAAISRRSGSTYYADSVKGRFTISRDNAKNTVYLQMNSLKPEDTAVYYCAATSSLGDFRYDYWGQVTQVTVSS,high polyreactivity
7,QVQLVESGGGLVQAGGSLRLSCAASGRIFRGYAMGWYRPAPGKERELVAAINWSGGSTDYADSVKGRFTISRDYAKNTVYLQMNSLKPEDTAVYYCSTSTCRGYSWGHGTQVTVSS,high polyreactivity
8,QVQLVESGGGLVQAGGSLRLSCAASGRIFRGYAMGWYRQAPGKERELVAAISQSGSSTYYADSVKGRFTISRDNAKNTVYLQMNSLKPEDTAVYFCAVKYLKHFGYWGQGTQVTVSS,high polyreactivity
9,QVQLVESGGGLVQAGGSLRLSCAASGRIFRGYAMGWYRQAPGKERELVARITSGGRTYYADSVKGRFTISRDNAKNTVYLQMNSLKPEDTAVYYCATVGRGYDERHNYWGQGTQVTVSS,high polyreactivity
10,QVQLVESGGGLVQAGGSLRLSCAASGRIFRGYLMGWYRQAPGKERELVAVITSGGRTYYADSVKGRFTISRDNAKNTVYLQMNSPKPEDTAVYYCATYPRYKPYYYWGQGTQVTVSS,low polyreactivity
11,QVQLVESGGGLVQAGGSLRLSCAASGRIFRGYTMGWYRTAPGKERELVAAISRSTGSTNYADSVKGRFTISRDNAKNTVYLQMNSLKPEDTAVYYCAAGPVDYGDWYYDVWFDYWGQGTQVTVSS,high polyreactivity
12,QVQLVESGGGLVQAGGSLRLSCAASGRIFRKYAMGWYRQAPGKERELVAAISVGGGSTRYADSEKGRFTISRDYAKYTVYLQMNSLKPEYTAVYYCAADWAYYVASYLYYTFDYWGQGTQVTVSS,low polyreactivity
13,QVQLVESGGGLVQAGGSLRLSCAASGRIFRKYAMGWYRQAPGTERELVATITLRGGSTYYADSVKGRFTISRDNGKNTVYLQMNSLKPEDTAVYYCATDITPAISVEYDYWGQGTQVTVSS,high polyreactivity
14,QVQLVESGGGLVQAGGSLRLSCAASGRIFRKYDMGWYRPAPGKERELVAAISGTGITYYADSVKGRFTISRDNAKNTVYLQMNSLKPEDTAVYYCARGSKPRAWSWAYPSATSIYDYWGQGTQVTVSS,low polyreactivity
15,QVQLVESGGGLVQAGGSLRLSCAASGRIFRLYAMGWYRQAPGKEREFVATITWIGGRTYYADSVTGRFTISRDNAKNTVYLQMNSLKPEDTAVYYCAADPGYTYEYWGQGTQVTVSS,low polyreactivity
16,QVQLVESGGGLVQAGGSLRLSCAASGRIFRLYAMGWYRQAPGKERELVATITSGGTYYADSVKGRFTISRDNAKNTVYLQMNSLKPEDTAVYYCAADVYPGYVGSEEYDYWGQGTQETVSS,low polyreactivity
17,QVQLVESGGGLVQAGGSLRLSCAASGRIFRLYAMGWYRQAPGKERELVATITSGGTYYADSVKGRFTISRDNAKNTVYLQMNSLKPEDTAVYYCTARRRLRYDYWGQGTQVTVSS,low polyreactivity
18,QVQLVESGGGLVQAGGSLRLSCAASGRIFRLYVMGWYRQAPGKERELVAAITRGGGTYYADSVKGRFTISRDNAKNTVYLQMNSLKPEDTAVYYCAVGTYTIYSGTLYDYKYYWGQGTQVTVSS,low polyreactivity
19,QVQLVESGGGLVQAGGSLRLSCAASGRIFRNYAMGWYRQAPGKERELVAAISYTTGSTYYADSVKGRFTISRDNAKNTVYLQMNSLKPEDTAVYYCATTDWYFKFYYWGQGTQVTVSS,high polyreactivity
20,QVQLVESGGGLVQAGGSLRLSCAASGRIFRPYAMGWYRQAPGKERELVASISWRGSSTYYADSVKGRFTISRDNAKNTVYLQMNSLKPEDTAVYYCAARPYTLAFYRYGYWGQGTQVTVSS,high polyreactivity
21,QVQLVESGGGLVQAGGSLRLSCAASGRIFRQNAMGWYRQAPGKERELVAAIDWNGTSTYADSVKGRFTISRDNAKNTVYLQMNSLKPEDTAVYYCNASESKPTFEYDYWGQGTQVTVSS,low polyreactivity
22,QVQLVESGGGLVQAGGSLRLSCAASGRIFRQYAMGWYRQAPGKEREFVAGISTTGGSTYYADSVKGRFTISRDNAKNTVYLQMNSLKPEDTAVYYCAVRINWSRWYHYYTYNYWGQGTQVTVSS,high polyreactivity

row,Sequence,polyreactivity (PSR sort gate)
1,QVQLVESGGGLVQAGGSLRLSCAASGRIFRRNVMGWYRQAPGKERELLAAIRGTGSTTYADSVKGRFTISRDNAKNTVYLQMNSLKPEDTAVYYCNAYKGQTGGGGRYGYWGQGTQVTVSS,high polyreactivity
2,QVQLVESGGGLVQAGGSLRLSCAASGRIFRRYAMGWYRQAPGKEREFVAAISYGGGSTYYADSVKGRFTISRDNAKNTVYLQMNSLKPEDTAVYYCNADEVVWGYNYWGQGTQVTVSS,low polyreactivity
3,QVQLVESGGGLVQAGGSLRLSCAASGRIFRRYAMGWYRQAPGKERELVAAISSGGSTNYADSVKGRFTLSRDNAKNTVYLQMNSLKPEDTAVYYCAARRTATTSRAYYYWGQGNQVTVSS,high polyreactivity
4,QVQLVESGGGLVQAGGSLRLSCAASGRIFRRYAMGWYRQAPGKERELVAAISSGGSTYYADSVKGRFTISRDNAKKTVYLQMNSLKPEDTAVYYCNAKVGAYLNYGYWGQGTQVTVSS,low polyreactivity
5,QVQLVESGGGLVQAGGSLRLSCAASGRIFRRYAMGWYRQAPGKERELVAAISSGGSTYYADSVKGRFTISRDNAKNTVYLQMNSLKPEDTAVYYCNAIVGAYLNYGYWGQGTQVTVSS,low polyreactivity
6,QVQLVESGGGLVQAGGSLRLSCAASGRIFRRYAMGWYRQAPGKERELVAAITSGSSTNYADSVKGRFTISRDNAKNTVYLQMNSLKPEDTAVYYCNAKLRGYYYSRYNYWGQGTQVTVSS,high polyreactivity
7,QVQLVESGGGLVQAGGSLRLSCAASGRIFRRYAMGWYRQAPGKERELVASISSGGSTNYADSVKGRFTISRDNAKNTVYLQMNSLKPEDTAVYYCNVYYGYFRSRYGYWGQGTQVTVSS,high polyreactivity
8,QVQLVESGGGLVQAGGSLRLSCAASGRIFRSNAMGWYRQAPGKERELVAAINNRDTSTYADSVKGRFTISRDNAKNTVYLQMNSLKPEDTAVYYCAARYQYYSTYGVTLDYWGQGTQVTVSS,low polyreactivity
9,QVQLVESGGGLVQAGGSLRLSCAASGRIFRSNAMGWYRQAPRKERELVAVITTAGSTNYADSVKGRFTISRDNAKNTVYLQMNSLKQEDTAVYYCATENGTRKRRYDYWGQGTQVTVSS,low polyreactivity
10,QVQLVESGGGLVQAGGSLRLSCAASGRIFRSNAMGWYSQAPGKERELVAAITLRGGSTFYADSVKGRFTISRDNAKNTVYLQMNSLKPEDTAVYYCAARSYWSRSIWSPYDYWGQGTQVTVSS,high polyreactivity
11,QVQLVESGGGLVQAGGSLRLSCAASGRIFRSNGMGWCRQAPGKERELVAVITPRSGTTSYADSVKGRFTISRDNAKNTVYLQRNSLKPEDTAVYYCAADSDWYPSPYDYWGQGTQVTVSS,high polyreactivity
12,QVQLVESGGGLVQAGGSLRLSCAASGRIFRSYAMGWYRQAPGKERELVAAITWGGGRTYYADSVKGRFTISRDNAKNTVYLQMNSLKPEDTAVYYCNTLAYPYYRGSKYDYWGQGTQVTVSS,high polyreactivity
13,QVQLVESGGGLVQAGGSLRLSCAASGRIFRSYAMGWYRQAPGKERELVAAITWSGGSTYYADSVKGRFTISRDNAKNTVYLQMDSLKPEDTAVYYCARVVTKKYSHTGYEYWGQGTQVTVSS,high polyreactivity
14,QVQLVESGGGLVQAGGSLRLSCAASGRIFRSYAMGWYRQAPGKERELVADISISGGRTYYADSVKGRFTISRDNAKNTVYLQMNSLKPEDTAVYYCAARTYDRNRQLRRQWYDYWGQGTQVTVSS,high polyreactivity
15,QVQLVESGGGLVQAGGSLRLSCAASGRIFRSYVMGWYRQAPGKERELVAVISKNGGTTYYADSVKGRFTISRDNAKNTVYLQMNSLKPEDTAVYYCAADFRYRSQPGWGARRNGYYWGQGTQVTVSS,high polyreactivity
16,QVQLVESGGGLVQAGGSLRLSCAASGRIFRTYAMGWYRQAPGKERELVAAISYSGGSTFYADSVKGRFTISRDNAKNTVYLQMNSLKPEDTAVYYCAADSRAKRYYWGQGTQVTVSS,high polyreactivity
17,QVQLVESGGGLVQAGGSLRLSCAASGRIFRVNAMGRYRQAPGKERELVAAITRSGGSTYYADSVKGRFTISRDNAKNTVYLQRNSLKPEDTAVYYCNADPRLRQTRDYWGQGTQVTVSS,high polyreactivity
18,QVQLVESGGGLVQAGGSLRLSCAASGRIFRVNTMGWSRQAPGKERELVAAIRSSGTRPYYADSVKGRFTISRDHAKNTVYLQMNSLIPEDTAVYYCAAEHYWWYVFPSLWGEDDYWGQGTQVTVSS,high polyreactivity
19,QVQLVESGGGLVQAGGSLRLSCAASGRIFRVYAMGWYRQEPGKERELVAGISFRGASTYYADSVKGRFTISRDNAKNTVYLQMNSLKPEDTAVYYCAAALPVQYRDMYSWGQGTQVTVSS,high polyreactivity
20,QVQLVESGGGLVQAGGSLRLSCAASGRIFRVYAMGWYSQAPGKERELVASISSGGSTNYADSVKGRFTISRDNANNTVYLQMNSLKPEDTAVYYCAADRSGSFYKLDYWGQGTHVTVSS,low polyreactivity
21,QVQLVESGGGLVQAGGSLRLSCAASGRIFRWNAMGWYRQAPGKERELVAVISSGGSTNYADSVKGRFTISRDNAKNTVYLQMNSLKPEDTAVYYCAKGLIRYSHLDYWGQGTQVTVSS,low polyreactivity
